Measured values as given in patent US20100293752, “DEVICE FOR DECELERATING THE ROTATION OF A HINGE IN PARTICULAR FOR FURNITURE AND A HINGE PARTICULARLY FOR FURNITURE HAVING SAID DECELERATION DEVICE” (published 2010).

Target: osteopontin (OPN) (Homo sapiens, UniProt P10451 P10451:17-314)
Assay: filter; double-filter nitrocellulose, selection buffer, 37 C; OPN species not specified for this assay
Conditions: label: 5'-32P; stem-loop (predicted, mFold)
Experimental: The RNA-protein equilibrium dissociation constant (Kd) of OPN-R3 was characterized using the double-filter nitrocellulose filter binding method (Gopinath, Anal. Bioanal. Chem. 387:171 (2007)). For all binding assays, RNAs were dephosphorylated using bacterial alkaline phosphatase (Invitrogen, Carlsbad, Calif.) and 5′-end labeled using T4 polynucleotide kinase (New England Biolabs, Beverly, Mass.) and γ-³²P-ATP (MP Biomedicals, Solon, Ohio). Direct binding assays were carried out by incubating ³²P-labeled RNA at a concentration of less than 0.1 nM and target protein at concentrations ranging from 300 nM to 10 μM in selection buffer at 37° C. The fraction of RNA bound was quantified with a PhosphorImager (Molecular Dynamics, Sunnyvale, Calif.). Raw binding data were corrected for nonspecific background binding of radiolabeled RNA to the nitrocellulose filter.

Sequence of osteopontin (OPN) (P10451 17-314, one chain of several): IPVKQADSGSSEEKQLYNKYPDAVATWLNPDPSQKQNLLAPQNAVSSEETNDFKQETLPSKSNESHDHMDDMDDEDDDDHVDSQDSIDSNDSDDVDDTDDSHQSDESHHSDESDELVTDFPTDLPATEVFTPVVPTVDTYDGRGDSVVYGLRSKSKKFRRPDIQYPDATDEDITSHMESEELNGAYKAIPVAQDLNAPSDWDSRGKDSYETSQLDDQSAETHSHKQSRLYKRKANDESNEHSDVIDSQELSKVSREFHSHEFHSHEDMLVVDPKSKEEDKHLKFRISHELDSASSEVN

Binder: CGGCCACAGAAUGAAAAACCUCAUCGAUGUUGCAUAGUUG (ssRNA, 2'-F on all C and U) [OPN-R3 32P-labelled]
- Kd: 18 nM
